Among the data in publication PMC12102759 (2025) are screen value values, retold here.

To fix the notation:
B1: PIP5K1C peptide 642-657 (Phosphatidylinositol 4-phosphate 5-kinase type-1 gamma), 16-mer library wild type / TLN1 PTB (TLN1 Phosphotyrosine-binding (PTB) domain, residues 309-401) (parent complex)
chain 1: TDERSWVYSPLHYSAQ
chain 2: GVSFFLVKEKMKGKNKLVPRLLGITKECVMRVDEKTKEVIQEWNLTNIKRWAASPKSFTLDFGDYQDGYYSVQTTEGEQIAQLIAGYIDIILK

In the assay the parent is B1. Description: proteomic peptide phage display deep mutational scan (ProP-PD DMS): M13 P8 16-mer library selected against immobilised GST-tagged bait for four days (rounds), NGS of the eluted pools per day and pseudo-replica; bait immobilised on MaxiSorp plates (10 µg), library pre-cleared on GST, 2 h binding at 4 °C, five washes; one round per day, days 1-4; value from days 2 and 3.
On to chain 1 R4Y, for which the screen value is 0.00355 average fractional NGS count over selection days 2 and 3 (reads of this peptide / all reads for the bait, averaged over ….
For chain 1 R4P the value was 0.000771 average fractional NGS count over selection days 2 and 3 (reads of this peptide / all reads for the bait, averaged over ….
Regarding chain 1 R4D, the screen value is 0.0132 average fractional NGS count over selection days 2 and 3 (reads of this peptide / all reads for the bait, averaged over ….
For chain 1 R4M the value was 0.00101 average fractional NGS count over selection days 2 and 3 (reads of this peptide / all reads for the bait, averaged over …; for chain 1 R4W, 0.000409 average fractional NGS count over selection days 2 and 3 (reads of this peptide / all reads for the bait, averaged over ….
Regarding chain 1 R4A, the screen value was 0.00627 average fractional NGS count over selection days 2 and 3 (reads of this peptide / all reads for the bait, averaged over ….
Regarding chain 1 R4G, the screen value was 0.00304 average fractional NGS count over selection days 2 and 3 (reads of this peptide / all reads for the bait, averaged over ….
Turning to chain 1 Y8L, the screen value is 0.0129 average fractional NGS count over selection days 2 and 3 (reads of this peptide / all reads for the bait, averaged over ….
In the case of chain 1 Y8W, the screen value is 0.004 average fractional NGS count over selection days 2 and 3 (reads of this peptide / all reads for the bait, averaged over ….
On to chain 1 Y8N, for which the screen value is 0.00782 average fractional NGS count over selection days 2 and 3 (reads of this peptide / all reads for the bait, averaged over ….
Take chain 1 Y8H: the screen value was 0.0119 average fractional NGS count over selection days 2 and 3 (reads of this peptide / all reads for the bait, averaged over ….
With chain 1 Y8Q, the screen value is 0.00124 average fractional NGS count over selection days 2 and 3 (reads of this peptide / all reads for the bait, averaged over ….
As to chain 1 Y8K, the screen value is 0.00106 average fractional NGS count over selection days 2 and 3 (reads of this peptide / all reads for the bait, averaged over ….
For chain 1 Y8E the value was 0.002 average fractional NGS count over selection days 2 and 3 (reads of this peptide / all reads for the bait, averaged over …; for chain 1 Y8A, 0.00167 average fractional NGS count over selection days 2 and 3 (reads of this peptide / all reads for the bait, averaged over ….
Consider chain 1 Y8G, for which the screen value is 0.000458 average fractional NGS count over selection days 2 and 3 (reads of this peptide / all reads for the bait, averaged over ….
Take chain 1 Y8S: the screen value is 0.00106 average fractional NGS count over selection days 2 and 3 (reads of this peptide / all reads for the bait, averaged over ….
For chain 1 Y8I, the screen value is 0.00147 average fractional NGS count over selection days 2 and 3 (reads of this peptide / all reads for the bait, averaged over ….
chain 1 Y8T: the screen value was 0.0121 average fractional NGS count over selection days 2 and 3 (reads of this peptide / all reads for the bait, averaged over ….
For chain 1 Y8V the value was 0.0101 average fractional NGS count over selection days 2 and 3 (reads of this peptide / all reads for the bait, averaged over …; for chain 1 Y8M, 0.00363 average fractional NGS count over selection days 2 and 3 (reads of this peptide / all reads for the bait, averaged over ….
Regarding chain 1 Y13G, the screen value was 0.000568 average fractional NGS count over selection days 2 and 3 (reads of this peptide / all reads for the bait, averaged over ….
For chain 1 Y13N the value was 0.00437 average fractional NGS count over selection days 2 and 3 (reads of this peptide / all reads for the bait, averaged over …; for chain 1 Y13V, 0.0012 average fractional NGS count over selection days 2 and 3 (reads of this peptide / all reads for the bait, averaged over ….
With chain 1 Y13S, the screen value was 0.00787 average fractional NGS count over selection days 2 and 3 (reads of this peptide / all reads for the bait, averaged over ….
As for chain 1 Y13L, the screen value was 0.00182 average fractional NGS count over selection days 2 and 3 (reads of this peptide / all reads for the bait, averaged over ….
For chain 1 Y13M the value was 0.00125 average fractional NGS count over selection days 2 and 3 (reads of this peptide / all reads for the bait, averaged over ….
For chain 1 Y13K, the screen value is 0.000613 average fractional NGS count over selection days 2 and 3 (reads of this peptide / all reads for the bait, averaged over ….
For chain 1 Y13A, the screen value was 0.000758 average fractional NGS count over selection days 2 and 3 (reads of this peptide / all reads for the bait, averaged over ….
In the case of chain 1 Y13F, the screen value is 0.0029 average fractional NGS count over selection days 2 and 3 (reads of this peptide / all reads for the bait, averaged over ….
Take chain 1 Y13D: the screen value was 0.0137 average fractional NGS count over selection days 2 and 3 (reads of this peptide / all reads for the bait, averaged over ….
As to chain 1 Y13E, the screen value was 0.000568 average fractional NGS count over selection days 2 and 3 (reads of this peptide / all reads for the bait, averaged over ….
As to chain 1 Y13R, the screen value was 0.00043 average fractional NGS count over selection days 2 and 3 (reads of this peptide / all reads for the bait, averaged over ….
As to chain 1 Y13Q, the screen value is 0.00224 average fractional NGS count over selection days 2 and 3 (reads of this peptide / all reads for the bait, averaged over ….
As to chain 1 S9A, the screen value was 0.000707 average fractional NGS count over selection days 2 and 3 (reads of this peptide / all reads for the bait, averaged over ….
The figure for chain 1 S9P is 0.000206 average fractional NGS count over selection days 2 and 3 (reads of this peptide / all reads for the bait, averaged over ….
Consider chain 1 E3N, for which the screen value was 0.00147 average fractional NGS count over selection days 2 and 3 (reads of this peptide / all reads for the bait, averaged over ….
With chain 1 E3W, the screen value is 0.0075 average fractional NGS count over selection days 2 and 3 (reads of this peptide / all reads for the bait, averaged over ….
For the variant chain 1 E3M, the screen value was 0.0019 average fractional NGS count over selection days 2 and 3 (reads of this peptide / all reads for the bait, averaged over ….
As to chain 1 E3I, the screen value was 0.00159 average fractional NGS count over selection days 2 and 3 (reads of this peptide / all reads for the bait, averaged over ….
With chain 1 E3H, the screen value was 0.00041 average fractional NGS count over selection days 2 and 3 (reads of this peptide / all reads for the bait, averaged over ….
As for chain 1 E3T, the screen value was 0.00106 average fractional NGS count over selection days 2 and 3 (reads of this peptide / all reads for the bait, averaged over ….
For chain 1 E3G, the screen value is 0.00191 average fractional NGS count over selection days 2 and 3 (reads of this peptide / all reads for the bait, averaged over ….
As to chain 1 E3S, the screen value is 0.00226 average fractional NGS count over selection days 2 and 3 (reads of this peptide / all reads for the bait, averaged over ….
With chain 1 E3A, the screen value is 0.000271 average fractional NGS count over selection days 2 and 3 (reads of this peptide / all reads for the bait, averaged over ….
For chain 1 E3Y the value was 0.00103 average fractional NGS count over selection days 2 and 3 (reads of this peptide / all reads for the bait, averaged over ….
For chain 1 E3P the value was 0.000178 average fractional NGS count over selection days 2 and 3 (reads of this peptide / all reads for the bait, averaged over …; for chain 1 E3V, 0.000642 average fractional NGS count over selection days 2 and 3 (reads of this peptide / all reads for the bait, averaged over ….
Take chain 1 E3D: the screen value is 0.000475 average fractional NGS count over selection days 2 and 3 (reads of this peptide / all reads for the bait, averaged over ….
The figure for chain 1 E3F is 0.00327 average fractional NGS count over selection days 2 and 3 (reads of this peptide / all reads for the bait, averaged over …; for chain 1 S5W it is 0.000786 average fractional NGS count over selection days 2 and 3 (reads of this peptide / all reads for the bait, averaged over …; for chain 1 S5M it is 0.00508 average fractional NGS count over selection days 2 and 3 (reads of this peptide / all reads for the bait, averaged over ….
For chain 1 S5P, the screen value is 0.00403 average fractional NGS count over selection days 2 and 3 (reads of this peptide / all reads for the bait, averaged over ….
For chain 1 S5N the value was 0.000275 average fractional NGS count over selection days 2 and 3 (reads of this peptide / all reads for the bait, averaged over …; for chain 1 S5I, 0.00725 average fractional NGS count over selection days 2 and 3 (reads of this peptide / all reads for the bait, averaged over …; for chain 1 S5E, 0.00528 average fractional NGS count over selection days 2 and 3 (reads of this peptide / all reads for the bait, averaged over ….
Turning to chain 1 S5R, the screen value is 0.00066 average fractional NGS count over selection days 2 and 3 (reads of this peptide / all reads for the bait, averaged over ….
With chain 1 S5L, the screen value was 0.00637 average fractional NGS count over selection days 2 and 3 (reads of this peptide / all reads for the bait, averaged over ….
Consider chain 1 S5K, for which the screen value was 0.00079 average fractional NGS count over selection days 2 and 3 (reads of this peptide / all reads for the bait, averaged over ….
Consider chain 1 S5H, for which the screen value was 0.00161 average fractional NGS count over selection days 2 and 3 (reads of this peptide / all reads for the bait, averaged over ….
Consider chain 1 S5T, for which the screen value is 0.0143 average fractional NGS count over selection days 2 and 3 (reads of this peptide / all reads for the bait, averaged over ….
For the variant chain 1 S5D, the screen value was 0.00879 average fractional NGS count over selection days 2 and 3 (reads of this peptide / all reads for the bait, averaged over ….
The figure for chain 1 W6N is 0.00011 average fractional NGS count over selection days 2 and 3 (reads of this peptide / all reads for the bait, averaged over ….
On to chain 1 W6P, for which the screen value was 0.000161 average fractional NGS count over selection days 2 and 3 (reads of this peptide / all reads for the bait, averaged over ….
Regarding chain 1 W6V, the screen value was 0.00015 average fractional NGS count over selection days 2 and 3 (reads of this peptide / all reads for the bait, averaged over ….
In the case of chain 1 V7W, the screen value was 0.00263 average fractional NGS count over selection days 2 and 3 (reads of this peptide / all reads for the bait, averaged over ….
Turning to chain 1 V7K, the screen value was 0.00287 average fractional NGS count over selection days 2 and 3 (reads of this peptide / all reads for the bait, averaged over ….
As to chain 1 V7A, the screen value was 0.0345 average fractional NGS count over selection days 2 and 3 (reads of this peptide / all reads for the bait, averaged over ….
Consider chain 1 V7D, for which the screen value is 0.000439 average fractional NGS count over selection days 2 and 3 (reads of this peptide / all reads for the bait, averaged over ….
Consider chain 1 V7G, for which the screen value was 0.000623 average fractional NGS count over selection days 2 and 3 (reads of this peptide / all reads for the bait, averaged over ….
On to chain 1 V7L, for which the screen value is 0.0042 average fractional NGS count over selection days 2 and 3 (reads of this peptide / all reads for the bait, averaged over ….
As to chain 1 V7M, the screen value is 0.0016 average fractional NGS count over selection days 2 and 3 (reads of this peptide / all reads for the bait, averaged over ….
The figure for chain 1 V7E is 0.00195 average fractional NGS count over selection days 2 and 3 (reads of this peptide / all reads for the bait, averaged over …; for chain 1 V7T it is 0.0104 average fractional NGS count over selection days 2 and 3 (reads of this peptide / all reads for the bait, averaged over ….
On to chain 1 V7I, for which the screen value was 0.000515 average fractional NGS count over selection days 2 and 3 (reads of this peptide / all reads for the bait, averaged over ….
